Target: the molecule itself
Test: cross-linking; 0.5 mg/ml HDAC4^N in SEC buffer (30 mM HEPES pH 7.6, 150 mM NaCl) with 0.2 mM or 2.0 mM disuccinimidyl suberate (DSS), 30 min at room temperature, quenched with Tris; SDS-PAGE and colloidal Coomassie

| Protein | binding result |
| --- | --- |
| HDAC4^N-WT (N-terminal fragment of Drosophila HDAC4, Pro37 to Gln143) (domain or fragment, UniProt Q9VYF3 37-143, looked up, Drosophila HDAC4 (DmHDAC4), translation of nucleotides 461-4216 of NCBI NM_132640; residues Pro37-Gln143, the region that corresponds to Ala62-Gln153 of human HDAC4; codon optimised for E. coli; Cloned in pET-15B in frame with the N-terminal 6x His tag; Which UniProt isoform equals the translation of NM_132640 is not known to me; also called wild-type N-terminal HDAC4) PHPAVDIDQQIMELKKSQELQKQRLINSFQEQSKQMELEHKLQLEHKYQFAVNSHGAFQELRNESMVTAAAAAVAQEQHRQQLHQQQQQHQQQQQQQQHQQQQQQQQ | binds |
| HDAC4^N-S69F (domain or fragment, Drosophila, UniProt Q9VYF3 37-143, looked up, Drosophila HDAC4 (DmHDAC4), translation of nucleotides 461-4216 of NCBI NM_132640; residues Pro37-Gln143 with Ser69Phe; Made by mutagenesis of HDAC4^N-WT in pET-15B) PHPAVDIDQQIMELKKSQELQKQRLINSFQEQFKQMELEHKLQLEHKYQFAVNSHGAFQELRNESMVTAAAAAVAQEQHRQQLHQQQQQHQQQQQQQQHQQQQQQQQ | binds |
| HDAC4^N-F65A (domain or fragment, Drosophila, UniProt Q9VYF3 37-143, looked up, Drosophila HDAC4 (DmHDAC4), translation of nucleotides 461-4216 of NCBI NM_132640; residues Pro37-Gln143 with Phe65Ala; Made by mutagenesis of HDAC4^N-WT in pET-15B) PHPAVDIDQQIMELKKSQELQKQRLINSAQEQSKQMELEHKLQLEHKYQFAVNSHGAFQELRNESMVTAAAAAVAQEQHRQQLHQQQQQHQQQQQQQQHQQQQQQQQ | binds |
